The results in this text go back to the supplement of paper PMC11246515.

The data set is described as follows: total protein half-life in vivo (active degradation + dilution); higher = more stable protein.
Where [1] appears, read: E. coli NCM3722 delta-clpP, growth: N-lim chemostat, doubling time 6 h.
The mark [2] stands for this setting: E. coli NCM3722 delta-hslV, growth: N-lim chemostat, doubling time 6 h.
Where [3] appears, read: E. coli NCM3722 delta-lon, growth: N-lim chemostat, doubling time 6 h.
[4] abbreviates: E. coli NCM3722 delta-smpB, growth: N-lim chemostat, doubling time 6 h.
[5] abbreviates: wild type E. coli NCM3722, growth: C-lim chemostat, doubling time 3 h.
[6] abbreviates: wild type E. coli NCM3722, growth: C-lim chemostat, doubling time 6 h.
Where [7] appears, read: wild type E. coli NCM3722, growth: C-lim chemostat, doubling time 12 h.
The mark [8] stands for this setting: wild type E. coli NCM3722, growth: N-lim chemostat, doubling time 6 h.
Where [9] appears, read: wild type E. coli NCM3722, growth: N-lim chemostat, doubling time 12 h.
Where [10] appears, read: wild type E. coli NCM3722, growth: P-lim chemostat, doubling time 6 h.
Where [11] appears, read: wild type E. coli NCM3722, growth: P-lim chemostat, doubling time 12 h.
The mark [12] stands for this setting: E. coli NCM3722 delta-clpP delta-lon delta-hslV, growth: N-lim chemostat, doubling time 6 h.

± gives the standard deviation of the averaged measurements.

For the sequence “MFHRLWTLIRKELQSLLREPQTRAILILPVLIQVILFPFAATLEVTNATIAIYDEDNGEHSVELTQRFARASAFTHVLLLKSPQEIRPTIDTQKALLLVRFPADFSRKLDTFQTAPLQLILDGRNSNSAQIAANYLQQIVKNYQQELLEGKPKPNNSELVVRNWYNPNLDYKWFVVPSLIAMITTIGVMIVTSLSVAREREQGTLDQLLVSPLTTWQIFIGKAVPALIVATFQATIVLAIGIWAYQIPFAGSLALFYFTMVIYGLSLVGFGLLISSLCSTQQQAFIGVFVFMMPAILLSGYVSPVENMPVWLQNLTWINPIRHFTDITKQIYLKDASLDIVWNSLWPLLVITATTGSAAYAMFRRKVM [P0AFP9]”, the “total protein half-life in vivo” value by setting is: under setting [1], 6.75 ± 1.4 h; under setting [2], more than 8 h; under setting [3], 7.11 h; under setting [4], 5.25 ± 0.36 h; under setting [5], 3.51 h; under setting [6], 6.05 ± 0.27 h. In addition, the “total protein half-life in vivo” value is 12.97 ± 0.071 h under setting [7], 6.33 ± 0.16 h under setting [8], 12.1 ± 1.1 h under setting [9] and 6.38 h under setting [10].
In the case of “MKLVTVIIKPFKLEDVREALSSIGIQGLTVTEVKGFGRQKGHAELYRGAEYSVNFLPKVKIDVAIADDQLDEVIDIVSKAAYTGKIGDGKIFVAELQRVIRIRTGEADEAAL [P0AC55]”, the “total protein half-life in vivo” value under setting [1] amounted to 5.2 ± 0.45 h; the “total protein half-life in vivo” value under setting [2] stood at 5.45 ± 0.14 h; the “total protein half-life in vivo” value under setting [3] turned out to be 5.044 ± 0.034 h; the “total protein half-life in vivo” value under setting [4] was found to be 4.83 ± 0.068 h; the “total protein half-life in vivo” value under setting [5] was more than 4 h; the “total protein half-life in vivo” value under setting [6] was determined as 7.02 h. In addition, the “total protein half-life in vivo” value is, setting by setting: under setting [8], 5.43 ± 0.42 h; under setting [9], 8.82 ± 0.72 h; under setting [11], 13.6 ± 2.6 h.
As for “MKHDHFVVQSPDKPAQQLLLLFHGVGDNPVAMGEIGNWFAPLFPDALVVSVGGAEPSGNPAGRQWFSVQGITEDNRQARVDAIMPTFIETVRYWQKQSGVGANATALIGFSQGAIMVLESIKAEPGLASRVIAFNGRYASLPETASTATTIHLIHGGEDPVIDLAHAVAAQEALISAGGDVTLDIVEDLGHAIDNRSMQFALDHLRYTIPKHYFDEALSGGKPGDDDVIEMM”, the “total protein half-life in vivo” value by setting is: under setting [12], 4.732 ± 0.016 h; under setting [2], 2.76 ± 0.035 h; under setting [3], 3.46 ± 0.23 h; under setting [4], 2.67 ± 0.22 h; under setting [5], 3.16 ± 0.45 h; under setting [6], 6.03 ± 2.2 h. The “total protein half-life in vivo” value was 5.97 ± 1.4 h under setting [7]; 2.93 ± 0.19 h under setting [8]; 3.93 ± 0.66 h under setting [9]; 4.46 ± 0.27 h under setting [10]; 6.94 ± 0.16 h under setting [11].
“MTLKELLVGFGTQVRSIWMIGLHAFAKRETRMYPEEPVYLPPRYRGRIVLTRDPDGEERCVACNLCAVACPVGCISLQKAETKDGRWYPEFFRINFSRCIFCGLCEEACPTTAIQLTPDFEMGEYKRQDLVYEKEDLLISGPGKYPEYNFYRMAGMAIDGKDKGEAENEAKPIDVKSLLP [P0AFD6]”: the “total protein half-life in vivo” value is, setting by setting: under setting [12], 6.29 ± 0.46 h; under setting [1], 7.36 ± 0.22 h; under setting [2], 6.38 ± 0.14 h; under setting [3], 7.21 ± 0.13 h; under setting [4], 6.351 ± 0.056 h; under setting [5], 3.32 ± 0.17 h. In addition, the “total protein half-life in vivo” value is, setting by setting: under setting [6], 6.25 ± 0.18 h; under setting [7], 12 ± 1.3 h; under setting [8], 5.99 ± 1.2 h; under setting [9], 15.2 ± 0.83 h; under setting [10], 6 ± 0.08 h; under setting [11], 13.6 ± 2.2 h.
As to “MTMKKLLIIILPVLLSGCSAFNQLVERMQTDTLEYQCDEKPLTVKLNNPRQEVSFVYDNQLLHLKQGISASGARYTDGIYVFWSKGDEATVYKRDRIVLNNCQLQNPQR”, the “total protein half-life in vivo” value is, setting by setting: under setting [12], 5.8 ± 0.46 h; under setting [1], 6.62 ± 0.99 h; under setting [2], 6.27 h; under setting [3], 6.49 ± 0.45 h; under setting [4], 5.45 ± 0.23 h; under setting [5], 3.27 ± 0.96 h. Moreover, the “total protein half-life in vivo” value is, setting by setting: under setting [6], 6.52 ± 1.3 h; under setting [7], 13.5 ± 0.37 h; under setting [9], 14.4 ± 0.55 h; under setting [10], 6.32 ± 0.75 h; under setting [11], 13.8 ± 1.6 h.
“MNLLTVSTDLISIFLFTTLFLFFARKVAKKVGLVDKPNFRKRHQGLIPLVGGISVYAGICFTFGIVDYYIPHASLYLACAGVLVFIGALDDRFDISVKIRATIQAAVGIVMMVFGKLYLSSLGYIFGSWEMVLGPFGYFLTLFAVWAAINAFNMVDGIDGLLGGLSCVSFAAIGMILWFDGQTSLAIWCFAMIAAILPYIMLNLGILGRRYKVFMGDAGSTLIGFTVIWILLETTQGKTHPISPVTALWIIAIPLMDMVAIMYRRLRKGMSPFSPDRQHIHHLIMRAGFTSRQAFVLITLAAALLASIGVLAEYSHFVPEWVMLVLFLLAFFLYGYCIKRAWKVARFIKRVKRRLRRNRGGSPNLTK [P0AC78]”: the “total protein half-life in vivo” value turned out to be 6.35 h under setting [1]; 5.89 ± 0.39 h under setting [2]; 5.27 ± 0.83 h under setting [3]; 5.8 ± 0.18 h under setting [4]; 3.68 ± 0.28 h under setting [5]; 5.75 h under setting [6]. Also, the “total protein half-life in vivo” value was determined as 11.8 ± 2.3 h under setting [7], 6.03 h under setting [8], 10.4 h under setting [9] and 6.33 ± 0.36 h under setting [10].
In the case of “MPVRASIEPLTWENAFFGVNSAIVRITSEAPLLTPDALAPWSRVQAKIAASNTGELDALQQLGFSLVEGEVDLALPVNNASDSGAVVAQETDIPALRQLASAAFAQSRFRAPWYAPDASSRFYAQWIENAVRGTFDHQCLILRAASGDIRGYVSLRELNATDARIGLLAGRGAGAELMQTALNWAYARGKTTLRVATQMGNTAALKRYIQSGANVESTAYWLYR”, the “total protein half-life in vivo” value is, setting by setting: under setting [12], 5.12 ± 0.074 h; under setting [1], 5.45 ± 0.15 h; under setting [2], 5.034 ± 0.029 h; under setting [3], 5.27 ± 0.26 h; under setting [4], 4.7 ± 0.44 h; under setting [5], 3.03 ± 0.15 h. For the same sequence, the “total protein half-life in vivo” value worked out at 5.9 ± 0.062 h under setting [6]; 11.5 h under setting [7]; 5.052 ± 0.012 h under setting [8]; 9.31 ± 0.14 h under setting [9]; 5.73 ± 0.87 h under setting [10]; 12.6 ± 0.52 h under setting [11].
